From PMC5770551 come the findings set out here.

The assay has as its target CbpAC (pneumococcal surface protein C variant) of nonencapsulated Streptococcus pneumoniae strain MNZ41 (Streptococcus pneumoniae (nonencapsulated strain MNZ41)). Briefly: flow cytometry on cells; 10^7 CFU viable pneumococci incubated with 200 µl of 10 µg/ml nonspecific mouse IgA for 1 h on ice; detected with biotinylated goat anti-mouse IgA and streptavidin-Alexa Fluor 488; percent positive cells gated above background.

nonspecific mouse IgA (antibody) gave a percent positive cells (MNZ41 bacteria expressing CbpAC) of 58.6%.
